Results published in patent US6808930B1, “Therapeutic agents” (priority 1997, dated 2004).

Tests used:
[1] = system: digitonin-permeabilized L1210, A549 and HRTEC cells; experiment: Nuclear uptake of biotinylated protein in digitonin-permeabilized cells; type: cell-based; conditions: digitonin treated cells, biotinylated MAL
L1210 cells = experiment: Cell surface binding of biotinylated protein, flow cytometry; design: species or system murine; conditions: biotinylated MAL
Procedure: MAL, human α-lactalbumin (HLA) and immunoglobulin G were biotinylated according to the manufacturer's instructions or labelled with ^125I with the lactoperoxidase method. Proteins were dissolved in PBSA-T buffer (30 mM Na2HPO4, 120 mM NaCl, pH 7.4, with 0.1% NaAzid, 0.05% Tween-20) and 25 μl of protein (25 μg) was incubated with 2 μl of ^125([…]), 2 μl of lactoperoxidase (2.5 mg/ml) and 2 μl of H2O2 (diluted 1:2000 in PBS) for 2 min at room temperature. The reaction was stopped by the addition of 500 μl of PBSA-T. The labelled protein was purified on a PD-10 column. 500 μl fractions in PBSA-T were eluted and fractions containing radioactivity were stored at […]. […] L1210, A549 and HRTEC cells (3×10^6 cells/ml, 50 μl) were incubated in suspension with 50 μl of biotinylated MAL, ALA or BSA for various times at 37° C. The cells were washed with PBS by centrifugation at 320×g for 10 min and the supernatant was discarded. FITC-conjugated streptavidin (diluted 1:50 in PBS) was added and the cells were incubated for 30 min at room temperature. The cells were washed by centrifugation as above, suspended in 300 μl PBS and the surface fluorescence was analysed by flow cytometry on a Coulter Epics Profile II flow cytometer (Coulter Inc.), equipped with a 488 nm argon laser. Green fluorescence was detected with a 525 nm band pass filter. The PMT voltage was initially set to 1250 V and adjusted for day to day variation using calibration with Immunobeads (Coulter).

[2] = stated for the three cell types

B1: MAL: protein complex from human milk casein containing oligomeric forms of α-lactalbumin; the apoptosis-inducing fraction (protein, UniProt P00709 20-142, looked up)
Alpha-lactalbumin: KQFTKCELSQLLKDIDGYGGIALPELICTMFHTSGYDTQAIVENNESTEYGLFQISNKLWCKSSQVPQSRNICDISCDKFLDDDITDDIMCAKKILDIKGIDYWLAHKALCTEKLEQWLCEKL
modifications: oligomeric form from milk casein
notes: protein complex from human milk casein containing oligomeric forms of α-lactalbumin; the apoptosis-inducing fraction
time at which maximum nuclear levels were reached [1]: 20 min | fluorescence intensity of cell surface binding (L1210 cells; 30 min, first of three cell types (L1210 by order)): 12.1 times that of the streptavidin control | time after which cell surface binding reached a maximum (L1210 cells; [2]): 30 min | time after which cell surface binding was detected (L1210 cells; [2]): 10 min
